Earlier results on one substance are cited in paper PMC5158201.

This data set deals with decoy IL-1 receptor (IL-1RII) (Homo sapiens) (UniProt P27930).
Sequence of UniProt P27930 (P27930 14-398): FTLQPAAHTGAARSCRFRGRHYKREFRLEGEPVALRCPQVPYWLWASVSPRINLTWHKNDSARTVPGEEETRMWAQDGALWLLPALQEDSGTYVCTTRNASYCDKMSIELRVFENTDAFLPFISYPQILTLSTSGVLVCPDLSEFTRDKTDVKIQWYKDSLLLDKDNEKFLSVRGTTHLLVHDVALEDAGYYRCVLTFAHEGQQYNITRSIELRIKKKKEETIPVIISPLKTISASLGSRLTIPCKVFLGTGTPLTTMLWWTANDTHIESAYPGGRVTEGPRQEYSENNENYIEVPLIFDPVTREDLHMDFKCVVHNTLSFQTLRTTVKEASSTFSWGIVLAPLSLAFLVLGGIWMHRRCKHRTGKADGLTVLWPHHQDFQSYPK

As to IL-1α (from UniProt P01583), the Kd is 0.03 nM.

One may read the Kd as a measure of binding affinity in units of concentration.
